Data on 3 molecules can be found in US20240402174A1 (Takeda / Millennium, published 2024).

As a reminder, the EC50 is the concentration needed to bring the measured effect to its halfway point. Higher therefore signals a need for much substance.

In one assay the target is T1, GII.4/Sydney VLP (norovirus …, UniProt P54635 1-538).
T1 construct: also called Hu/GII.4/Sydney/NSW0514/2012/AU
T1 chain: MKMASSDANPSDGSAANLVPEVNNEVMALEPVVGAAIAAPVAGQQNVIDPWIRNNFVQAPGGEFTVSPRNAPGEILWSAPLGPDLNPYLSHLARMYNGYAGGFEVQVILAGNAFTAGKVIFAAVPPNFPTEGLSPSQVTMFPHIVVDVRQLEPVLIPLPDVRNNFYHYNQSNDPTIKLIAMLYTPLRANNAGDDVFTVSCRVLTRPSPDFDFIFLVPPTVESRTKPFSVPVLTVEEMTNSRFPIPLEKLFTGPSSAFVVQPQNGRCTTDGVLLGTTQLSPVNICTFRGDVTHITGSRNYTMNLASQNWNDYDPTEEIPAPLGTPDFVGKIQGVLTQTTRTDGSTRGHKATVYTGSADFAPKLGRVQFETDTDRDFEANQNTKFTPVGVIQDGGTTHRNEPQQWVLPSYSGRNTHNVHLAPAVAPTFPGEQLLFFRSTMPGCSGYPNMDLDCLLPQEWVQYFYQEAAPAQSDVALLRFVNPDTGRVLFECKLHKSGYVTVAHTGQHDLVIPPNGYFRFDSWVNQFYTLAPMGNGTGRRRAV
Kind of assay: multiplex microsphere immunoassay.

The next assay concerns the target T2, GII.4/Consensus VLP (norovirus GII.4 consensus sequence, UniProt P54635 1-539).
T2 chain: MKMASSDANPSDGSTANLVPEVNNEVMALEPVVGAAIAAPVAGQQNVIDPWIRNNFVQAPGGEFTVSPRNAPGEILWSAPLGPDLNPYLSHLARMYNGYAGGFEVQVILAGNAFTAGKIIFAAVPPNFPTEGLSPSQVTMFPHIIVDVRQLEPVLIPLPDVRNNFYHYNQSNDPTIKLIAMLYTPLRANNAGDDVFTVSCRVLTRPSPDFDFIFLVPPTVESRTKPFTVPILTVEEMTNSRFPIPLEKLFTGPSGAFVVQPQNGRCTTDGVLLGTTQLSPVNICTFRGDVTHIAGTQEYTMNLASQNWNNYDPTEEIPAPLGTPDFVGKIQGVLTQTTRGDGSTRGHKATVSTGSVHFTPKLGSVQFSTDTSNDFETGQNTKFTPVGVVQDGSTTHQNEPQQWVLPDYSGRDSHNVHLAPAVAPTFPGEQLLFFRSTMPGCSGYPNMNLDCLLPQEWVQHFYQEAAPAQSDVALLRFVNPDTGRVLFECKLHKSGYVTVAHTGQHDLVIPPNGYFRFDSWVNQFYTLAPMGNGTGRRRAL
In words: PGM blockade assay, serially diluted mAb.

Another assay has as its target T3, GII.4/Den Haag VLP (norovirus Hu/GII.4/DenHaag89/2006/NL, UniProt P54635 1-539).
T3 construct: also called Hu/GII.4/DenHaag89/2006/NL
T3 chain: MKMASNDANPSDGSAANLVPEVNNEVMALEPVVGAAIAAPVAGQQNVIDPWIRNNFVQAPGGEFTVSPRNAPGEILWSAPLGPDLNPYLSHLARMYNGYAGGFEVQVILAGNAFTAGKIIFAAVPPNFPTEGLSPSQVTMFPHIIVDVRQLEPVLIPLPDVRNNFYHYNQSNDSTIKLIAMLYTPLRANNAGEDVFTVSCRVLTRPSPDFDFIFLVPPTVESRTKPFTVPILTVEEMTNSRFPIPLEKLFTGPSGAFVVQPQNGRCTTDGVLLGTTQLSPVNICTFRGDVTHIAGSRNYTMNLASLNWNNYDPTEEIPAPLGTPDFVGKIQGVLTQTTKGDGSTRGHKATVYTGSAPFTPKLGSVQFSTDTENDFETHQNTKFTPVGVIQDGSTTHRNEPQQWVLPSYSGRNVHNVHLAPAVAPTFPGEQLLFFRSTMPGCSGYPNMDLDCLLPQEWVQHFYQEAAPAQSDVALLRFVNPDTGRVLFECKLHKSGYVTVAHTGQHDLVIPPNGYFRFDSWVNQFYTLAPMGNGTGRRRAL
In words: PGM blockade assay, serially diluted mAb.

The next assay deals with T4, GI.3 VLP (norovirus Hu/GI.3/JKPG_883/SWE/2007).
T4 construct: also called GI.3 Sweden
T4 chain: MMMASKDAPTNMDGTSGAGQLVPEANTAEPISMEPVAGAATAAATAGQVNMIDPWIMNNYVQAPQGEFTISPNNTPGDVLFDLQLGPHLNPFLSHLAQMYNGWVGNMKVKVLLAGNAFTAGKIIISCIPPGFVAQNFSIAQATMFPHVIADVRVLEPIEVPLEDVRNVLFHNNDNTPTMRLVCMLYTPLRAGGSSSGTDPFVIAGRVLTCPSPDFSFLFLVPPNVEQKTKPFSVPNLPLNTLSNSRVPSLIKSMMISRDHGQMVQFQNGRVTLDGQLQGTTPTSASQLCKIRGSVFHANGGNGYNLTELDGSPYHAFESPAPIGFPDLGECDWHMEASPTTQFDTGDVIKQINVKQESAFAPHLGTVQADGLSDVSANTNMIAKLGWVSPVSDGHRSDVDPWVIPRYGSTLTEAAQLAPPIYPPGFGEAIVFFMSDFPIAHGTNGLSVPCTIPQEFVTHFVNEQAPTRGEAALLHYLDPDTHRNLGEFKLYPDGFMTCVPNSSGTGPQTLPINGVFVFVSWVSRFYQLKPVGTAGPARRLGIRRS
In words: multiplex microsphere immunoassay.

The next assay deals with T5, GI.4 VLP (norovirus Hu/GI.4/1643/2008/US).
T5 construct: also called GI.4 US
T5 chain: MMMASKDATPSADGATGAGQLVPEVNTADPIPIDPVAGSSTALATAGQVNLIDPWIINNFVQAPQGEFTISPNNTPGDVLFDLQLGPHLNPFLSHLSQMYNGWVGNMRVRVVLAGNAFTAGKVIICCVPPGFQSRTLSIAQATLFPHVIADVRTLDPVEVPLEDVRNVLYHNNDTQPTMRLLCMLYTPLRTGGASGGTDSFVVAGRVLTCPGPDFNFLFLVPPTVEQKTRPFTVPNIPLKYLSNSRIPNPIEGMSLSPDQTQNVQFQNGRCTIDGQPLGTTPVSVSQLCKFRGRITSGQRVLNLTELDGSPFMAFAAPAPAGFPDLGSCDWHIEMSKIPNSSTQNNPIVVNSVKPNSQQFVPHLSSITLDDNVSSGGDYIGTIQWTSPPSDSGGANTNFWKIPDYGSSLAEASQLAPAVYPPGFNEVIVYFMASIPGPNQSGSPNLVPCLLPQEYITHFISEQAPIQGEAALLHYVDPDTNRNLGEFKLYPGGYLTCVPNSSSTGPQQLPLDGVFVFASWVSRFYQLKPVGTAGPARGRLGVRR
Kind of assay: multiplex microsphere immunoassay.

Experimental for GII.4/Consensus VLP: (§1) Plates were washed 3 times with PBST before use. […] The mixture was transferred to the PGM-coated plates including VLP-only controls and incubation carried out for 1 h at 22° C. or 37° C. Following 3 washes with PBST, detection antibody specific for the corresponding VLP was added and the plates were incubated at room temperature for 1 h and then washed 3 times with PBST. […] Following 3 washes, enzyme substrate (ABTS, KPL) was added and allowed to react for 12 min at room temperature. ABTS Peroxidase Stop Solution (KPL) was then added and plates were read at a wavelength of 450 nm in a Molecular Devices plate reader using SoftMax Pro Software (Molecular Devices, Downingtown, PA, USA) to obtain the Optical Density (GD) of each well.
(§2) The following, day corresponding dilutions incubated with VLPs were transferred to the PGM-coated plates. The OD data was curve fit and blocking titers were calculated as the supernatant dilution interpolated at 1/2 the maximum OD for the plate. The blocking titers represent the supernatant dilution that produces a 50% reduction in VLP binding to PGM. The maximum OD for the plate was calculated from the VLP only control.
Experimental for GII.4/Den Haag VLP: as §1, §2

B1: human mAb 1431 (antibody, V domains shown)
VH: QVQLVQSGGGLVQPGGSLRLSCAASGFAFSNHGMHWVRQAPGKGLEWLSYISGSTGAIHYANSVKGRFTISRDNARNSLDLQMNSLGDEDTAVYYCARDGPRPDGTGYAGPSNDYWGQGTLVSVSS
VL: EIVLTQSPASLSLSPGERATLSCKASRSISIYLAWYQQKPGQAPRLLIYDASYRAIGIPARFSGSGSGTDFTLTISNLEPEDFAVYYCQHRSSWPALTFGGGTKVEI
notes: also called A1431
In turn, B1 showed a 50% effective concentration (EC50) with GII.4/Sydney VLP of 0.026 µg/mL. The blocking titer in the assay with GII.4/Consensus VLP was determined as 139000; with GII.4/Den Haag VLP, 5720.

B2: human mAb 1431 (antibody, V domains shown)
VH: B1 VH
VL: B1 VL
notes: also called A1431
Turning to B2, the binding result in the assay with GI.3 VLP and with GI.4 VLP was “no binding” throughout.

B3: human mAb 1227 (antibody, V domains shown)
VH: QVQLVQSGGGMVQPGGSLSLSCAASGFTLSNYAMTWVRQAPGKGLEWVSSIGGSGGTTYYADSVKGRFTISRDSSMNTLYLQMSNLRAGDTAVYYCAKDKTRTLRLGYSGMDVWGQGTTVTVSS
VL: DIRLTQSPSSLSASVGDRVTITCRASQSISSYLNWYQQKPGKAPDLLIYGASSLQSGVPSRFSGSGSGTDFTLTISSLQPEDFGNYYCQQSFSTPRTFGQGTKVEL
notes: also called A1227
B3 showed an EC50 in the assay with GII.4/Sydney VLP of 0.012 µg/mL. Besides, the blocking titer with GII.4/Consensus VLP came out at 447; with GII.4/Den Haag VLP it was 162.
